The results in this text go back to US20170247475A1 (Boehringer Ingelheim, published 2017).

For assay [1], the target named is T1, hAng2.
T1 construct: also called human Ang2
T1 chain: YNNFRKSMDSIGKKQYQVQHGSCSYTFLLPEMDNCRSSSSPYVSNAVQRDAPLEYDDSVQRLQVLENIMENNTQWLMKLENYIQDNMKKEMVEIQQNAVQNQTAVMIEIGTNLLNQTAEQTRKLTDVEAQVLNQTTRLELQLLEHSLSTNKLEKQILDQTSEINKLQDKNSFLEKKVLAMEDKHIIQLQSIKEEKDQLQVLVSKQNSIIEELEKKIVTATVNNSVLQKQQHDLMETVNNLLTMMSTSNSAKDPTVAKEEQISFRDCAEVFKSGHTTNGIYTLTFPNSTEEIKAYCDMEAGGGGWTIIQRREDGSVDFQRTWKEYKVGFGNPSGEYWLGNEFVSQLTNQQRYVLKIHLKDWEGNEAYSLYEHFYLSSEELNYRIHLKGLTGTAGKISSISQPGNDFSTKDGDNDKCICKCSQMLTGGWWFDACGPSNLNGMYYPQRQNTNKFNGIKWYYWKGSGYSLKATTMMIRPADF
The assay is described as follows: competition ELISA, blocking of hAng2 binding to hTie2. In general terms: An ELISA detects its analyte on a solid surface through an enzyme-linked reagent.

For assay [2], the target named is T2, mAng2.
T2 construct: also called mouse Ang2
T2 chain: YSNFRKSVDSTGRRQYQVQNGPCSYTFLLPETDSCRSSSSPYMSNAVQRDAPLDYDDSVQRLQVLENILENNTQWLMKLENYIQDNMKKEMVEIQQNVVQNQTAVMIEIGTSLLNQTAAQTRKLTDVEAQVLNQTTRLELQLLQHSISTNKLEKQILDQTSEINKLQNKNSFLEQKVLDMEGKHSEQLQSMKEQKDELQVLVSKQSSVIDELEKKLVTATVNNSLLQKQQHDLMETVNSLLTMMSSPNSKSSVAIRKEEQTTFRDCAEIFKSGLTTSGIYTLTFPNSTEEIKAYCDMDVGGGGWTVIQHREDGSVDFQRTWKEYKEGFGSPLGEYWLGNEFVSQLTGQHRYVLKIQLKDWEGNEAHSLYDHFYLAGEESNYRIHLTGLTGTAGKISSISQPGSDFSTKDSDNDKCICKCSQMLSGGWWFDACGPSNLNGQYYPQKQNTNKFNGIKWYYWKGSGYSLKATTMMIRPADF
As to the kind of experiment: competition ELISA, blocking of mAng2 binding to mTie2.

The target of assay [3] is T3, human PIGF (human, UniProt P49763-2 21-149, limits assumed).
T3 construct: also called hPIGF; PLGF
T3 sequence (looked up): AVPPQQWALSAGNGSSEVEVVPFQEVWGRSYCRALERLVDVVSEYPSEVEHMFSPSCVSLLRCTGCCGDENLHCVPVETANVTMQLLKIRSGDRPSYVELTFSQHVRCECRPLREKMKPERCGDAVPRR
The assay is described as follows: solid phase binding ELISA. Here is the method: (§1) Binding to VEGFB, VEGFC, VEGFD and PIGF is assessed via a solid phase binding ELISA. In brief, VEGFB, VEGFC, VEGFD and PIGF (R&D Systems, Minneapolis, Minn., USA) are coated overnight at 4° C. at 1 μg/mL in a 96-well MaxiSorp plate (Nunc, Wiesbaden, Germany). Wells are blocked with a casein solution (1% in PBS). […] As positive controls serial dilutions of the appropriate receptors are taken along and detected with horseradish peroxidase (HRP)-conjugated goat anti-human IgG, Fc specific antibody (Jackson Immuno Research Laboratories Inc., West Grove, Pa., USA) and a subsequent enzymatic reaction in the presence of the substrate TMB (3,3′,5,5′-tetramentylbenzidine) (Pierce, Rockford, Ill., USA).

Assay [4] concerns the target T4, human VEGF-B (human, UniProt P49765-2 22-188, limits assumed).
T4 construct: also called hVEGF-B
T4 sequence (looked up): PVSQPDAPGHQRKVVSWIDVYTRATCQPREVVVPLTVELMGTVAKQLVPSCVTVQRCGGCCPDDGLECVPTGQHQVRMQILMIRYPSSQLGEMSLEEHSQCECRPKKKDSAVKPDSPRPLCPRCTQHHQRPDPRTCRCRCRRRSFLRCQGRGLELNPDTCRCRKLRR
The assay is described as follows: solid phase binding ELISA. How it is done: as §1

The target of assay [5] is T5, human VEGF-C (human, UniProt P49767 103-227).
T5 construct: also called hVEGF-C
T5 sequence (looked up): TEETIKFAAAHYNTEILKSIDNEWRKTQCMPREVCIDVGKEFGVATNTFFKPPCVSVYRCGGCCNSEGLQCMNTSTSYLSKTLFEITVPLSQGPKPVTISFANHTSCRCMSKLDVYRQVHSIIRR
The assay is described as follows: solid phase binding ELISA. Here is the method:
as §1

For assay [6], the target named is T6, human VEGF-D (human, UniProt O43915 93-201).
T6 construct: also called hVEGF-D
T6 sequence (looked up): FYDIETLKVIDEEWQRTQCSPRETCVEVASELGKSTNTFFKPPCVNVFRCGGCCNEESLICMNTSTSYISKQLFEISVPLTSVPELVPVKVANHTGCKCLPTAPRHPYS
As to the kind of experiment: solid phase binding ELISA. How it is done:
as §1

Assay [7] has as its target VEGF. The assay is described as follows: cell-based or functional assay.
Assay [8] has as its target T7, recombinant human VEGF165 (human, UniProt P15692-4 27-191).
T7 construct: also called hVEGF165; rhVEGF165
The assay is described as follows: binding ELISA, coated rhVEGF165.

Assay [9] deals with T8, recombinant human VEGF121 (human, UniProt P15692-9 27-147).
T8 construct: also called rhVEGF121; hVEGF121
T8 sequence (looked up): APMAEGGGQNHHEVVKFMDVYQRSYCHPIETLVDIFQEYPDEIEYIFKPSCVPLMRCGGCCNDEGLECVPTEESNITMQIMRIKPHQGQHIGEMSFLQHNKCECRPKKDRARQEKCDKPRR
The assay is described as follows: binding ELISA, coated rhVEGF121. How it is done: Binding to recombinant human VEGF121 is assessed via a solid phase binding ELISA. Briefly, recombinant human VEGF121 (R&D Systems, Minneapolis, Minn., USA) is coated overnight at 4° C. at 1 μg/mL in a 96-well MaxiSorp plate (Nunc, Wiesbaden, Germany). Wells are blocked with a casein solution (1% in PBS).

Assay [10] addresses T9, recombinant mouse VEGF164 (mouse, UniProt Q00731-2 27-190).
T9 construct: biotinylated in the mVEGFR2 AlphaScreen; also called rmVEGF164; mVEGF164
T9 sequence (looked up): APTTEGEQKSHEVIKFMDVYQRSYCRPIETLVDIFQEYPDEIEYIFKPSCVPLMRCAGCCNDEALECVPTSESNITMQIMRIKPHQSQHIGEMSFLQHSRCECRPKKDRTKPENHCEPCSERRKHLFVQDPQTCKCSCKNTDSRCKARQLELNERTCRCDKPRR
As to the kind of experiment: binding ELISA, coated rmVEGF164. How it is done: Cross-reactivity to mouse VEGF164 is determined using a binding ELISA. […] Wells are blocked with a casein solution (1% in PBS). […] A mouse VEGF164 reactive mAb is included as positive control.

Assay [11] addresses T7, recombinant human VEGF165. The assay is described as follows: hVEGF165/hVEGFR2-Fc competition ELISA.
Assay [12] has as its target T7, recombinant human VEGF165. The assay is described as follows: hVEGF165/hVEGFR1-Fc competition ELISA.
Assay [13] has as its target T7, recombinant human VEGF165. As to the kind of experiment: hVEGF165/hVEGFR2-Fc competition AlphaScreen. Here is the method:
(§2) Finally, streptavidin donor beads (20 μg/ml) are added and after 1 hour of incubation in the dark, fluorescence is measured on the Envision microplate reader.
In general terms: Alpha assays give light when donor and acceptor beads are brought close together.

The target of assay [14] is T7, recombinant human VEGF165. The assay is described as follows: hVEGF165/hVEGFR1-Fc competition AlphaScreen. Here is the method:
as §2

The target of assay [15] is T7, recombinant human VEGF165. The assay is described as follows: Biacore, periplasmic extract on hVEGF165 chip. How it is done:
(§3) Dissociation rates of inhibitory VHHs are analyzed on Biacore (Biacore T100 instrument, GE Healthcare). HBS-EP+ buffer is used as running buffer and experiments are performed at 25° C. […] After immobilization, surfaces are deactivated with 10 min injection of 1M ethanolamine pH8.5. A reference surface is activated and deactivated with respectively EDC/NHS and ethanolamine. Periplasmic extracts of VHHs are injected at a 10-fold dilution in running buffer for 2 min at 45 μl/min and allowed to dissociate for 10 or 15 min. Between different samples, the surfaces are regenerated with regeneration buffer. Data are double referenced by subtraction of the curves on the reference channel and of a blank running buffer injection. […] is evaluated by fitting a two phase decay model in the Biacore T100 Evaluation software v2.0.1.
Target sequence in this assay (P15692 other isoform, or with tags, fused parts or gaps limits assumed): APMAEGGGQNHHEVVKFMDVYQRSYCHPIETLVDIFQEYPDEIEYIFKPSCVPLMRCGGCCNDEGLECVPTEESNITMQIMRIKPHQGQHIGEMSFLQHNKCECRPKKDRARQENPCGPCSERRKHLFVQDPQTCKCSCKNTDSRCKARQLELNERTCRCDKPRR

Assay [16] concerns the target T7, recombinant human VEGF165. As to the kind of experiment: SPR Biacore T100, hVEGF165 on chip, Two State Reaction model. Here is the method:
(§4) Samples are injected for 2 min and allowed to dissociate up to 20 min at a flow rate of 45 μI/min. In between sample injections, the chip surface is regenerated with 100 mM HCl. HBS-EP+(Hepes buffer pH7.4+EDTA) is used as running buffer. Binding curves are fitted using a Two State Reaction model by Biacore T100 Evaluation Software v2.0.1.
(§5) ^{(a)}Heterogeneous binding curve resulting in no 1:1 fit, curves are fitted using a Two State Reaction model by Biacore T100 Evaluation Software v2.0.1

For assay [17], the target named is T7, recombinant human VEGF165. The assay is described as follows: ka1; SPR Biacore T100, hVEGF165 on chip, Two State Reaction model. Here is the method:
as §4, §5
Background: In SPR one partner is held on a chip, and binding of the other changes the refractive index at the surface.

Assay [18] deals with T7, recombinant human VEGF165. The assay is described as follows: kd1; SPR Biacore T100, hVEGF165 on chip, Two State Reaction model. How it is done: as §4, §5
Assay [19] addresses T7, recombinant human VEGF165. As to the kind of experiment: Biacore, periplasmic extract on hVEGF165 chip, two phase decay fit. Here is the method: as §3
Target sequence in this assay (P15692 other isoform, or with tags, fused parts or gaps limits assumed): as above

Positions count from the first letter of the chain named.

B1: ANGBII00005 (VHH)
bivalent VHH: EVQLVESGGGLVQAGGSLRLSCAASGFTLDDYAIGWFRQAPGKEREGVSSIRDNDGSTYYADSVKGRFTISSDNDKNTVYLQMNSLKPEDTAVYYCAAVPAGRLRFGEQWYPLYEYDAWGQGTLVTVSSGGGGSGGGGSGGGGSGGGGSGGGGSGGGGSGGGGSGGGGSEVQLVESGGGLVQAGGSLRLSCAASGFTLDDYAIGWFRQAPGKEREGVSSIRDNDGSTYYADSVKGRFTISSDNDKNTVYLQMNSLKPEDTAVYYCAAVPAGRLRFGEQWYPLYEYDAWGQGTLVTVSS
notes: homodimeric anti-Ang2 VHH; also called 00027-40gs-00027
Turning to B1, the “IC50 (read off the curve)” value in assay [1] was around 0.01 nM; in assay [2], around 0.03 nM.

B2: VEGFBII23A06 (VHH)
VHH: EVQLVESGGGLVQPGDSLKLSCAFSGRTFSSYSMGWFRQAQGKEREFVVAISSGGFIYDAVSLEGRFTISRDNTKNTVYLQTPSLKPEDTAVYYCAASRAYGSSRLRLADTYDYWGQGTQVTVSS
notes: also called 23A6; VEGFBII23A6
As usually defined, the EC50 is the concentration needed to bring the measured effect to its halfway point. As usually defined, the % inhibition is the relative decrease from the control value, in per cent. What is called IC50 is the midpoint of a concentration-inhibition curve. For orientation: Kd means the constant that tells how readily two partners part at equilibrium. In general, kon refers to a measure of how fast the partners come together. One may read the koff as a measure of how fast the partners let go of each other. Take B2: the binding result in assay [3], in assay [4], in assay [5], in assay [6] and in [10] was “no binding (tested: 500 nM-32 pM)” in each case. In addition, in assay [7], the “% inhibition, VEGF HUVEC proliferation assay” value was 73%. In assay [7], the “IC50 (nM), VEGF HUVEC proliferation assay” value turned out to be 4.29 nM. Moreover, the EC50 amounted to 0.531 nM in assay [8] and 0.928 nM in assay [9]. Also, the “% inhibition” value in [11] turned out to be 100%; in [12], 55%; in assay [13], 100%; in assay [14] it was 46%. Further, the IC50 was 3 nM in assay [11], 0.9 nM in [12], 0.25 nM in assay [13] and 0.4 nM in [14]. For the same molecule, the “Binding level (RU)” value in [15] was 547 RU. For the same molecule, in assay [16], the dissociation constant (Kd) came to 0.7 nM. Moreover, the kd2 in assay [16] came out at 0.0001 s⁻¹. Besides, the kon in assay [17] stood at 420000 M⁻¹ s⁻¹. The dissociation rate constant (koff) in assay [18] stood at 0.057 s⁻¹. In addition, the “% fast” value in assay [19] stood at 13%.

B3: VEGFBII24C04 (VHH)
VHH: B2 VHH with A23V, F24A, F29S, F56Y, A60S, E64Q
notes: also called VEGFBII24C4
On to B3, for which the binding result in [3], in assay [4], in assay [5], in assay [6] and in [10] was “no binding (tested: 500 nM-32 pM)” each time. Also, the “% inhibition, VEGF HUVEC proliferation assay” value in [7] is 79%. Moreover, in [7], the “IC50 (nM), VEGF HUVEC proliferation assay” value was determined as 3.8 nM. Also, the concentration giving a half-maximal response (EC50) is 0.453 nM in assay [8] and 0.792 nM in assay [9]. Besides, the “% inhibition” value was 100% in assay [11], 71% in assay [12], 100% in assay [13] and 53% in assay [14]. The IC50 in assay [11] was found to be 2.5 nM; in [12], 0.8 nM; in [13] it was 0.25 nM; in assay [14], 0.2 nM. Also, the “Binding level (RU)” value in assay [15] was found to be 456 RU. For the same molecule, in assay [16], the dissociation constant (Kd) is 0.4 nM. Also, the kd2 in [16] worked out at 9.6e-05 s⁻¹. For the same molecule, the kon in [17] came to 320000 M⁻¹ s⁻¹. For the same molecule, in assay [18], the koff amounted to 0.026 s⁻¹. Also, in assay [19], the “% fast” value turned out to be 17%.
